Experimental data reported in patent CN105622755A (1ST AFFILIATED HOSPITAL OF 3RD MILITARY MEDICAL UNIV PLA, dated 2016).

Assays:
重组表达的PSMA胞外区蛋白 = molecular target: T1, 重组表达的PSMA胞外区蛋白 (UniProt Q04609 44-750, limits assumed); test: indirect phage-ELISA, PSMA extracellular region coated at 5 μg/mL, HRP-anti-M13 detection
T1 construct: extracellular domain; also called 前列腺特异性膜抗原膜外区; PSMA抗原; not shown: His tag (purified with HisTrap FF Crude, detected with anti-His antibody)

[1] = molecular target: T2, 前列腺特异性膜抗原 (PSMA) on LNCaP cells (UniProt Q04609 1-750, limits assumed); test: cell ELISA (OD450) and immunofluorescence on fixed LNCaP cells (PSMA+) against MKN45 cells (PSMA-), anti-M13 detection
T2 construct: whole, on cells; Endogenous PSMA on fixed LNCaP cells; also called prostate specific membrane antigen; LNCaP细胞(表达PSMA)
T2 sequence (Q04609 whole entry): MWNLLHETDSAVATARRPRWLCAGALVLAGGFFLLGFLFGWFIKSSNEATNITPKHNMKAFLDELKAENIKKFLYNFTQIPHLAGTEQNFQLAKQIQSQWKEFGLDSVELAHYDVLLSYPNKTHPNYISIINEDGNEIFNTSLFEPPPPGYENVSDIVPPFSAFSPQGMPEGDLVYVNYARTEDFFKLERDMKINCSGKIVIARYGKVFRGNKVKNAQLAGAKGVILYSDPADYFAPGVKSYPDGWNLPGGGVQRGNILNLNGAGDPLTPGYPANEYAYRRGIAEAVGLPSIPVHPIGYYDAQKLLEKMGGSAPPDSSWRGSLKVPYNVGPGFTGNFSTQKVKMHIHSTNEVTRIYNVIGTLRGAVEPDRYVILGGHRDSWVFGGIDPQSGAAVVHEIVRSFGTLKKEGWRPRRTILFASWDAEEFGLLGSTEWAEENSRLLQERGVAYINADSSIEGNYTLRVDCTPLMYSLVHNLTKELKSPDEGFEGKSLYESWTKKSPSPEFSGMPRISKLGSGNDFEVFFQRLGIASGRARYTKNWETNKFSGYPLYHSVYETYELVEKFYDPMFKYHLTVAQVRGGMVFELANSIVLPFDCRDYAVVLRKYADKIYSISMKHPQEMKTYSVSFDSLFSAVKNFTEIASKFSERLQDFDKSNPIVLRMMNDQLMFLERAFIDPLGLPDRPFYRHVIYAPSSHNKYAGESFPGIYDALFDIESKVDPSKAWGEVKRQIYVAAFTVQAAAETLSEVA

T1 sequence (Q04609 44-750 limits assumed): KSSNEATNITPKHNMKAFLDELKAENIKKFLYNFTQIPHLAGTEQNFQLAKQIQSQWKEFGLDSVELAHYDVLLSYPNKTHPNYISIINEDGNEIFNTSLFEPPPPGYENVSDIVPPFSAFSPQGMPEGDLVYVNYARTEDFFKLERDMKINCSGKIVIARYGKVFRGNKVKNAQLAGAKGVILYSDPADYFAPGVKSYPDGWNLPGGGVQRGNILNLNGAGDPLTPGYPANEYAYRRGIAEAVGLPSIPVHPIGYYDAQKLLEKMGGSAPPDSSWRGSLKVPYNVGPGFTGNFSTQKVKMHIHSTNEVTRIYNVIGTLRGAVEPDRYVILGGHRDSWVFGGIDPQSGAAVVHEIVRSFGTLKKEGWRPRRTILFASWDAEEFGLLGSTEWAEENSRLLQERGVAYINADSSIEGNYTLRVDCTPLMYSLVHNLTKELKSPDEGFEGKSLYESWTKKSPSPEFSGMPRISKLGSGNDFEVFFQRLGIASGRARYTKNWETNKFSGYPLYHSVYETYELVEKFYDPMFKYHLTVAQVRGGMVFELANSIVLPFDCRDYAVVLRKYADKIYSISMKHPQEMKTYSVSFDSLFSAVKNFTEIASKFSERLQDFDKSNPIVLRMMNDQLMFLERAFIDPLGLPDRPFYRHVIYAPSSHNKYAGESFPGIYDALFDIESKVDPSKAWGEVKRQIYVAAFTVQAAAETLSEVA

B1: 抗前列腺特异性膜抗原单域重链抗体噬菌体阳性克隆 (VHH)
VHH: QVQLVESGGGLVQAGDSLRLSCAASRRTFSFMAWYRQAPGKQRELVAAITSGGRNTNYADSVKGRFTISRDNAKNTMYLQMNSLKPEDTAVYYCNAAARWNNYWGQGTPVTVSS
notes: The phage coat protein fusion and any linker are not described; Selected from a naive camelid VHH phage display library; also called 针对前列腺特异性膜抗原的单域重链抗体阳性克隆; 展示本发明所述纳米抗体的噬菌体克隆
重组表达的PSMA胞外区蛋白
  binding result: binds
[1]
  binding result: binds
